Patent US20250092133A1 (Amgen, published 2025)

T1: Hu CDH3 Dom1C mu (aa 180-215), human/mouse chimeric CDH3 on CHO cells (chimeric hu/mu, UniProt P22223 108-681 (human entry))
T1 chain: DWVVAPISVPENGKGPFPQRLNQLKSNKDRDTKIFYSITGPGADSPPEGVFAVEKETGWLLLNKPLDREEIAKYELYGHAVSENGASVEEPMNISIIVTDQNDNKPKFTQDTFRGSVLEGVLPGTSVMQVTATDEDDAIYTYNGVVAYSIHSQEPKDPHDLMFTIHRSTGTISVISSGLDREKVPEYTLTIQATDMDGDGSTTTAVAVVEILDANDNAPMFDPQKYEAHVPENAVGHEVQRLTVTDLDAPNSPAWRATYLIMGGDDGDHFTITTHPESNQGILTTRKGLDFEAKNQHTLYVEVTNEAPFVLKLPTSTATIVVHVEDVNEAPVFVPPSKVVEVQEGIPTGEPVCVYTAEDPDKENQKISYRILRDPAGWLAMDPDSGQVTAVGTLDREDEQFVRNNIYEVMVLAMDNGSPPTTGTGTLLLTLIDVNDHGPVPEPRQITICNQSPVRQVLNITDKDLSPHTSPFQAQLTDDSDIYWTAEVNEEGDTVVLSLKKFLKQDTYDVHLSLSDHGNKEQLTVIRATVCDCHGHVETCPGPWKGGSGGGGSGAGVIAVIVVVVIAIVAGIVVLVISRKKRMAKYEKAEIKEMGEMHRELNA


Key:
Test in all cases: flow cytometry, transfected CHO cells; crude undiluted periplasmic scFv extract; anti-FLAG M2 + anti-mouse IgG Fcγ-PE; control PBS/2% FCS
[1] = target: Hu CDH3 Dom3 mu (aa 328-440), human/mouse chimeric CDH3 on CHO cells (chimeric hu/mu)
Protocol: (§1) Cells transfected with human or murine CDH3, or with the chimeric human/mouse CDH3 molecules (see Example 1) were stained with crude, undiluted periplasmic extract containing scFv binding to human/macaque CDH3. […] As negative control, cells were incubated with PBS/2% FCS instead of the periplasmic extract. The samples were measured by flow cytometry.

[2] = target: T1, Hu CDH3 Dom1C mu (aa 180-215), …
Protocol: as §1

[3] = target: T2, human CDH3 (P-cadherin) on cells (human, UniProt P22223 108-829)
T2 construct: The entry includes signal peptide and pro-peptide; extracellular domain D1 starts at aa 108; also called hu CDH3; hu CDH-3
Protocol: as §1

| binding result [1] | binding result [2] | binding result [3] | Binder |
| --- | --- | --- | --- |
| binds | binds | binds | CDH3-10 scFv (scFv) scFv: EVQLVEESGGGLVKPGGSLKLSCAASGFTFSSYAMSWVRQTPDKRLEWVATISSGGHYTYYPDSVKGRFTISRDNAKNTLYLQMSSLKSEDTAMYYCASYYYGIPFGYWGQGTTVTVSSGGGGSGGGGSGGGGSELVMTQSPSSLSASLGEGVSLTCRASQDIGINLIWLRQEPDGTIKRLIYDTSSLDSGVPKRFSGSRSGSDYSLTISSLESEDFVHYYCLQYGSSPLTFGAGTKLEIK |
| binds | binds | binds | CDH3-9 (scFv, Used as crude periplasmic extract and detected through a FLAG tag; also called CDH3-9 scFv) scFv: EVQLVEESGGDLVKPGGSLKLSCAASGFTFSTYGMSWVRQTPDKRLEWVATISSGGHYSYYPDSVKGRFTISRDNAKNTLYLQMSSLKSEDTAMYYCASYYYGSPFAYWGQGTTVTVSSGGGGSGGGGSGGGGSELQMTQSPSSLSASLGERVSLTCRASQDIGSSLNWLQQKPDGTIKRLIYDTSSLDSGVPKRFSGSRSGSDYSLTISSLESEDFGDYYCVQYGSSPLTFGAGTKLEIK |
| binds | binds | binds | CDH3-8 (scFv, Used as crude periplasmic extract and detected through a FLAG tag; also called CDH3-8 scFv) scFv: EVQLVEQSGAEVVKPGASVKITCKASGYAFSSYWMNWVRQRPGKGLEWIGHIYPGDGDTNYNGKFKGKVTLTADKSSNTAYMQLSDLTPEDSAVYFCARDRGSFGAWFAYWGQGTTVTVSSGGGGSGGGGSGGGGSELVMTQTPSSLSASLGDRVTISCRASQDISNYLNWYQQKPDGTVKLLIYYTSRLHSGVPSRFSGSGSGTDYSLTISNLEQEDIATYFCQQGNRNPPTFGGGTKLEIK |
